Data set [1] concerns the molecule itself. Description: cryo-EM structure; single-particle cryo-EM of purified hZnT3(50-388) in LMNG/CHS micelles, 50 mM MES pH 6.0, 150 mM NaCl, 1 mM ZnSO4; 3.14 Å map.
Data set [2] deals with the molecule itself. Description: cryo-EM structure; single-particle cryo-EM of purified hZnT1 in LMNG/CHS micelles, 50 mM HEPES-Na pH 7.5, 150 mM NaCl, no Zn2+ supplement, no EDTA treatment; 3.48 Å map, C1.

As usually defined, the stoichiometry N is a count of units in the complex or per binding partner.

B1: human zinc transporter 3 (ZnT3) lacking the N-terminal 49 residues, ZnT3(50-388) (domain or fragment, UniProt Q99726 50-388, looked up)
chain: MPFHHCHRDPLPPPGLTPERLHARRQLYAACAVCFVFMAGEVVGGYLAHSLAIMTDAAHLLADVGSMMGSLFSLWLSTRPATRTMTFGWHRSETLGALASVVSLWMVTGILLYLAFVRLLHSDYHIEGGAMLLTASIAVCANLLMAFVLHQAGPPHSHGSRGAEYAPLEEGPEEPLPLGNTSVRAAFVHVLGDLLQSFGVLAASILIYFKPQYKAADPISTFLFSICALGSTAPTLRDVLRILMEGTPRNVGFEPVRDTLLSVPGVRATHELHLWALTLTYHVASAHLAIDSTADPEAVLAEASSRLYSRFGFSSCTLQVEQYQPEMAQCLRCQEPPQA
notes: Zinc transporter 3 (ZnT3/SLC30A3), human, residues 50-388 (lacking the N-terminal 49 residues); No protease step is described for ZnT3, so the tags were probably still on the chain; also called hZnT3; SLC30A3; source: HEK293F cells, transfected
Turning to B1, the “stoichiometry N” value in data set [1] is 2.

B2: human zinc transporter 1 (ZnT1), full-length wild type (natural protein, UniProt Q9Y6M5 1-507, looked up)
chain: MGCWGRNRGRLLCMLALTFMFMVLEVVVSRVTSSLAMLSDSFHMLSDVLALVVALVAERFARRTHATQKNTFGWIRAEVMGALVNAIFLTGLCFAILLEAIERFIEPHEMQQPLVVLGVGVAGLLVNVLGLCLFHHHSGFSQDSGHGHSHGGHGHGHGLPKGPRVKSTRPGSSDINVAPGEQGPDQEETNTLVANTSNSNGLKLDPADPENPRSGDTVEVQVNGNLVREPDHMELEEDRAGQLNMRGVFLHVLGDALGSVIVVVNALVFYFSWKGCSEGDFCVNPCFPDPCKAFVEIINSTHASVYEAGPCWVLYLDPTLCVVMVCILLYTTYPLLKESALILLQTVPKQIDIRNLIKELRNVEGVEEVHELHVWQLAGSRIIATAHIKCEDPTSYMEVAKTIKDVFHNHGIHATTIQPEFASVGSKSSVVPCELACRTQCALKQCCGTLPQAPSGKDAEKTPAVSISCLELSNNLEKKPRRTKAENIPAVVIEIKNMPNKQPESSL
notes: Zinc transporter 1 (ZnT1/SLC30A1), human, full-length wild type, codon-optimised synthetic cDNA; residues 138-240 and 448-507 not modelled in the map; also called hZnT1; SLC30A1; source: HEK293F cells, transfected; not shown: FLAG, C-terminal, cleaved; mCherry, C-terminal, cleaved
For the protein B2, the “stoichiometry N” value in data set [2] is 2.

Source of the values: paper PMC11549101, “Structural insights into human zinc transporter ZnT1 mediated Zn^2+ efflux” (EMBO Reports, 2024).
